Measurements as given in patent US20140348819A1, “Methods of Treating Cancer” (Dana-Farber Cancer Institute, Inc., priority 2011, published 2014).

System: six V600E BRAF melanoma cell lines
Assay: Screening of recombinant RTK ligands for ability to confer resistance to BRAFi (PLX4720) or MEKi (PD184352) (Table 4)
Format: cell-based, human
Parameters: ability of recombinant RTK ligand to confer resistance / ability of recombinant RTK ligand to confer resistance (screening value): scale not given here
Procedure, shortened: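 Resistance to BRAFi (PLX4720) or MEKi (PD184352) was tested in six V600E BRAF melanoma lines given one of 22 recombinant RTK ligands. For a subset of RTKs, activation was checked by high-throughput tyrosine kinase phosphorylation profiling and western blot.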

B1: Ephrin-A4 (protein, UniProt P52798 26-170, looked up)
Ephrin-A4: LRHVVYWNSSNPRLLRGDAVVELGLNDYLDIVCPHYEGPGPPEGPETFALYMVDWPGYESCQAEGPRAYKRWVCSLPFGHVQFSEKIQRFTPFSLGFEFLPGETYYYISVPTPESSGQCLRLQVSVCCKERKSESAHPVGSPGES
ability of recombinant RTK ligand to confer resistance (A2058, PD184352 - 1 uM, ligand 1.6 ng/ml): 1.00
ability of recombinant RTK ligand to confer resistance (A2058, PD184352 - 1 uM, ligand 6.25 ng/ml): 1.02
ability of recombinant RTK ligand to confer resistance (A2058, PD184352 - 1 uM, ligand 25 ng/ml): 0.99
ability of recombinant RTK ligand to confer resistance (A2058, PD184352 - 1 uM, ligand 100 ng/ml): 1.04
ability of recombinant RTK ligand to confer resistance (A2058, PD184352 - 1 uM, ligand 400 ng/ml): 1.07
ability of recombinant RTK ligand to confer resistance (A2058, PLX4720 - 2 uM, ligand 1.6 ng/ml): 0.97
ability of recombinant RTK ligand to confer resistance (A2058, PLX4720 - 2 uM, ligand 6.25 ng/ml): 0.99
ability of recombinant RTK ligand to confer resistance (A2058, PLX4720 - 2 uM, ligand 25 ng/ml): 0.96
ability of recombinant RTK ligand to confer resistance (A2058, PLX4720 - 2 uM, ligand 100 ng/ml): 0.99
ability of recombinant RTK ligand to confer resistance (A2058, PLX4720 - 2 uM, ligand 400 ng/ml): 0.98
ability of recombinant RTK ligand to confer resistance (C32, PD184352 - 1 uM, ligand 1.6 ng/ml): 1.02
ability of recombinant RTK ligand to confer resistance (C32, PD184352 - 1 uM, ligand 6.25 ng/ml): 1.02
ability of recombinant RTK ligand to confer resistance (C32, PD184352 - 1 uM, ligand 25 ng/ml): 0.98
ability of recombinant RTK ligand to confer resistance (C32, PD184352 - 1 uM, ligand 100 ng/ml): 1.04
ability of recombinant RTK ligand to confer resistance (C32, PD184352 - 1 uM, ligand 400 ng/ml): 0.90
ability of recombinant RTK ligand to confer resistance (C32, PLX4720 - 2 uM, ligand 1.6 ng/ml): 1.04
ability of recombinant RTK ligand to confer resistance (C32, PLX4720 - 2 uM, ligand 6.25 ng/ml): 1.01
ability of recombinant RTK ligand to confer resistance (C32, PLX4720 - 2 uM, ligand 25 ng/ml): 1.04
ability of recombinant RTK ligand to confer resistance (C32, PLX4720 - 2 uM, ligand 100 ng/ml): 1.10
ability of recombinant RTK ligand to confer resistance (C32, PLX4720 - 2 uM, ligand 400 ng/ml): 1.03
ability of recombinant RTK ligand to confer resistance (Colo 829, PD184352 - 1 uM, ligand 1.6 ng/ml): 1.08
ability of recombinant RTK ligand to confer resistance (Colo 829, PD184352 - 1 uM, ligand 6.25 ng/ml): 1.13
ability of recombinant RTK ligand to confer resistance (Colo 829, PD184352 - 1 uM, ligand 25 ng/ml): 1.01
ability of recombinant RTK ligand to confer resistance (Colo 829, PD184352 - 1 uM, ligand 100 ng/ml): 0.98
ability of recombinant RTK ligand to confer resistance (Colo 829, PD184352 - 1 uM, ligand 400 ng/ml): 0.96
ability of recombinant RTK ligand to confer resistance (Colo 829, PLX4720 - 2 uM, ligand 1.6 ng/ml): 1.06
ability of recombinant RTK ligand to confer resistance (Colo 829, PLX4720 - 2 uM, ligand 6.25 ng/ml): 1.19
ability of recombinant RTK ligand to confer resistance (Colo 829, PLX4720 - 2 uM, ligand 25 ng/ml): 1.00
ability of recombinant RTK ligand to confer resistance (Colo 829, PLX4720 - 2 uM, ligand 100 ng/ml): 0.99
ability of recombinant RTK ligand to confer resistance (Colo 829, PLX4720 - 2 uM, ligand 400 ng/ml): 0.90
ability of recombinant RTK ligand to confer resistance (G-361, PD184352 - 1 uM, ligand 1.6 ng/ml): 1.11
ability of recombinant RTK ligand to confer resistance (G-361, PD184352 - 1 uM, ligand 6.25 ng/ml): 1.09
ability of recombinant RTK ligand to confer resistance (G-361, PD184352 - 1 uM, ligand 25 ng/ml): 1.04
ability of recombinant RTK ligand to confer resistance (G-361, PD184352 - 1 uM, ligand 100 ng/ml): 0.98
ability of recombinant RTK ligand to confer resistance (G-361, PD184352 - 1 uM, ligand 400 ng/ml): 0.86
ability of recombinant RTK ligand to confer resistance (G-361, PLX4720 - 2 uM, ligand 1.6 ng/ml): 1.08
ability of recombinant RTK ligand to confer resistance (G-361, PLX4720 - 2 uM, ligand 6.25 ng/ml): 1.05
ability of recombinant RTK ligand to confer resistance (G-361, PLX4720 - 2 uM, ligand 25 ng/ml): 0.95
ability of recombinant RTK ligand to confer resistance (G-361, PLX4720 - 2 uM, ligand 100 ng/ml): 1.02
ability of recombinant RTK ligand to confer resistance (G-361, PLX4720 - 2 uM, ligand 400 ng/ml): 0.88
ability of recombinant RTK ligand to confer resistance (SK-MEL-5, PD184352 - 1 uM, ligand 1.6 ng/ml): 0.96
ability of recombinant RTK ligand to confer resistance (SK-MEL-5, PD184352 - 1 uM, ligand 6.25 ng/ml): 0.93
ability of recombinant RTK ligand to confer resistance (SK-MEL-5, PD184352 - 1 uM, ligand 25 ng/ml): 0.93
ability of recombinant RTK ligand to confer resistance (SK-MEL-5, PD184352 - 1 uM, ligand 100 ng/ml): 0.98
ability of recombinant RTK ligand to confer resistance (SK-MEL-5, PD184352 - 1 uM, ligand 400 ng/ml): 0.99
ability of recombinant RTK ligand to confer resistance (SK-MEL-5, PLX4720 - 2 uM, ligand 1.6 ng/ml): 0.91
ability of recombinant RTK ligand to confer resistance (SK-MEL-5, PLX4720 - 2 uM, ligand 6.25 ng/ml): 1.07
ability of recombinant RTK ligand to confer resistance (SK-MEL-5, PLX4720 - 2 uM, ligand 25 ng/ml): 0.99
ability of recombinant RTK ligand to confer resistance (SK-MEL-5, PLX4720 - 2 uM, ligand 100 ng/ml): 0.99
ability of recombinant RTK ligand to confer resistance (SK-MEL-5, PLX4720 - 2 uM, ligand 400 ng/ml): 0.93
ability of recombinant RTK ligand to confer resistance (SK-MEL-28, PD184352 - 1 uM, ligand 1.6 ng/ml): 0.98
ability of recombinant RTK ligand to confer resistance (SK-MEL-28, PD184352 - 1 uM, ligand 6.25 ng/ml): 0.88
ability of recombinant RTK ligand to confer resistance (SK-MEL-28, PD184352 - 1 uM, ligand 25 ng/ml): 0.99
ability of recombinant RTK ligand to confer resistance (SK-MEL-28, PD184352 - 1 uM, ligand 100 ng/ml): 1.07
ability of recombinant RTK ligand to confer resistance (SK-MEL-28, PD184352 - 1 uM, ligand 400 ng/ml): 0.90
ability of recombinant RTK ligand to confer resistance (SK-MEL-28, PLX4720 - 2 uM, ligand 1.6 ng/ml): 1.10
ability of recombinant RTK ligand to confer resistance (SK-MEL-28, PLX4720 - 2 uM, ligand 6.25 ng/ml): 0.84
ability of recombinant RTK ligand to confer resistance (SK-MEL-28, PLX4720 - 2 uM, ligand 25 ng/ml): 1.05
ability of recombinant RTK ligand to confer resistance (SK-MEL-28, PLX4720 - 2 uM, ligand 100 ng/ml): 1.10
ability of recombinant RTK ligand to confer resistance (SK-MEL-28, PLX4720 - 2 uM, ligand 400 ng/ml): 1.00
